Measured values taken from patent US20250043028A1 (Hoffmann-La Roche, published 2025).

Assays:
muFcγRIV-aviHis-biotin [1] = biological target: T1, muFcγRIV-aviHis-biotin (murine, UniProt A0A0B4J1G0 21-203, Biotin on the lysine of the Avi tag (tag left out of the letters); C-terminal His tag used for capture by the anti-Penta His antibody); test: SPR Biacore T100, 25 °C, steady state; receptor captured via anti-Penta His, construct 500-4000 nM
T1 construct: Captured on an anti-Penta His antibody on a CM5 chip; also called murine FcγRIV; not shown: Avi-His tag (and any linker to it)
T1 sequence: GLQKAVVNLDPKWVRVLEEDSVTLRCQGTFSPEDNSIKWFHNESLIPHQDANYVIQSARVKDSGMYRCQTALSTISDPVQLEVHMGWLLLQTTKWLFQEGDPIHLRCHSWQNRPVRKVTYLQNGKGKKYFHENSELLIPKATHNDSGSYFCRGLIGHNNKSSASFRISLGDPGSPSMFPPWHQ
Protocol: (§1) For analyzing interaction of different Fc-variants with human FcγRIIIa-V158 and murine FcγRIV direct coupling of around 6,500 resonance units (RU) of the anti-Penta His antibody (Qiagen) is performed on a CM5 chip at pH 5.0 using the standard amine coupling kit (Biacore, Freiburg/Germany). HuFcγRIIIa-V158-K6H6 and muFcγRIV-aviHis-biotin are captured for 60 s at 4 and 10 nM respectively.
(§2) Constructs with different Fc-mutations are passed through the flow cells for 120 s at a concentration of 1000 nM with a flow rate of 30 μl/min. The dissociation is monitored for 220 s. Bulk refractive index differences are corrected for by subtracting the response obtained in a reference flow cell. Here, the Fc-variants are flown over a surface with immobilized anti-Penta His antibody but on which HBS-EP has been injected rather than HuFcγRIIIa-V158-K6H6 or muFcγRIV-aviHis-biotin. Affinity for human FcγRIIIa-V158 and murine FcγRIV was determined for wild-type Fc using a concentration range from 500-4000 nM.
(§3) The steady state response was used to derive the dissociation constant KD by non-linear curve fitting of the Langmuir binding isotherm. Kinetic constants were derived using the Biacore T100 Evaluation Software (vAA, Biacore AB, Uppsala/Sweden), to fit rate equations for 1:1 Langmuir binding by numerical integration.

HuFcγRIIIa-V158-K6H6 [2] = biological target: T2, HuFcγRIIIa-V158-K6H6 (human, UniProt P08637 17-208); test: as above
T2 construct: Captured on an anti-Penta His antibody on a CM5 chip; also called human FcγRIIIa-V158; human FcγRIIIa; not shown: K6H6 tag
Protocol: as §1, §2, §3

muFcγRIV-aviHis-biotin [3] = biological target: T1, muFcγRIV-aviHis-biotin; test: SPR Biacore T100, 25 °C, kinetic fit; receptor captured via anti-Penta His
Protocol: as §1, §2, §3

HuFcγRIIIa-V158-K6H6 [4] = biological target: T2, HuFcγRIIIa-V158-K6H6; test: SPR Biacore T100, 25 °C, kinetic fit, one concentration (1000 nM); receptor captured via anti-Penta His
Protocol: as §1, §2, §3

HuFcγRIIIa-V158-K6H6 [5] = biological target: T2, HuFcγRIIIa-V158-K6H6; test: SPR Biacore T100, 25 °C, kinetic fit (value in brackets, not explained); receptor captured via anti-Penta His
Protocol: as §1, §2, §3

T2 sequence (P08637 17-208 F176V): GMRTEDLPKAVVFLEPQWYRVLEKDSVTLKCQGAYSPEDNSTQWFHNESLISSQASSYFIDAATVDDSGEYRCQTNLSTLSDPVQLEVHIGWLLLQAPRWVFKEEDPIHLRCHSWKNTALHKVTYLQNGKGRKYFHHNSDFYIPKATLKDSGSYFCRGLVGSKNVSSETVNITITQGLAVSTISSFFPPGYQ

B1: “2+1 IgG scFab, wt” (anti-MCSP/anti-huCD3) (bispecific antibody)
chain 1: DIVLTQSPSSLSASLGDRVTISCSASQGIRNYLNWYQQRPDGTVKLLIYYTSSLHSGVPSRFSGSGSGTDYSLTISNLEPEDIATYYCQQYSKLPWTFGGGTKLEIKRTVAAPSVFIFPPSDEQLKSGTASVVCLLNNFYPREAKVQWKVDNALQSGNSQESVTEQDSKDSTYSLSSTLTLSKADYEKHKVYACEVTHQGLSSPVTKSFNRGEC
chain 2: not shown
chain 3: not shown
notes: Wild-type Fc domain; vectors transfected 1:2:1 (heavy chain : light chain : heavy chain-scFab); also called Fc-wt; copies: 2 + 1 + 1
muFcγRIV-aviHis-biotin [1]
  Kd: 1500 nM
HuFcγRIIIa-V158-K6H6 [2]
  Kd: 3470 nM
muFcγRIV-aviHis-biotin [3]
  Kd: 576 nM
HuFcγRIIIa-V158-K6H6 [4]
  Kd: 600 nM
HuFcγRIIIa-V158-K6H6 [5]
  Kd: 1200 nM
